Measurements taken from patent US20240132599A1.
Changes are numbered by the printed parent chain. “And” between values parts separate entries of the source, which are not always exact repeats. Identical values can stand only once.

B1: ADT1-7 (parental) (antibody, IgG1, V domains shown)
VH: QVQLVESGGGLVKPGGSLRLSCAASGFTFSDYYMSWIRQAPGKGLEWVSYISSSGSTIYYADSVKGRFTISRDNAKNSLYLQMNSLRAEDTAVYYCARVDYADAFDIWGQGTLVTVSS
VL: ASDIQMTQSPSSLSASVGDRVTIACRAGQSIGTYLNWYQQKPGKAPKLLIYVASSLQSGVPSRFSGSGSGTEFTLTISSLQPEDFATYYCQQSYSTLLTFGRGTKVEIK
B2: ADT1-4/ADT3-1 (bispecific antibody, human IgG1)
heavy: QVQLQQSGPGLVKPSQTLSLTCAISGDSVSSKSAAWNWIRQSPSRGLEWLGRTYYRSKWSTDYAASVKSRITINPDTSKNQLSLQLNSVTPEDTAVYYCARTWSGYVDVWGQGTLVTVSSASTKGPSVFPLAPSSKSTSGGTAALGCLVKDYFPEPVTVSWNSGALTSGVHTFPAVLQSSGLYSLSSVVTVPSSSLGTQTYICNVNHKPSNTKVDKKVEPKSCDKTHTCPPCPAPELAGAPSVFLFPPKPKDTLMISRTPEVTCVVVDVSHEDPEVKFNWYVDGVEVHNAKTKPREEQYNSTYRVVSVLTVLHQDWLNGKEYKCKVSNKALPAPIEKTISKAKGQPREPQVYTLPPSRDETDDGPVSLTCLVKGFYPSDIAVEWESTYGPENNYKTTPPVLDSDGSFFLYSKLTVSYWRWYKGNVFSCSVMHEALHNHYTQKSLSLSPG
light: ASDIQMTQSPPALSASVGDRVTITCRASQDINDWLAWYQHKPGKAPKLLIYDASSLESGVPSRFSGSGSGTEFTLTISSLQPDDFATYYCQQSYSTPQVTFGQGTRLEIKRTAAAPSVFIFPPSDEQLKSGTASVVCLLNNFYPREAKVQWKVDNALQSGNSQESVTEQDSKDSTYSLSSTLTLSKADYEKHKLYACEVTHQGLSSPVTKSFNRGEC
B3: ADT1-4-2/ADT3-1 (bispecific antibody)
heavy: B2 heavy with Q1E, S104V, V109R
light: DIQMTQSPPALSASVGDRVTITCRASQDINDWLAWYQHKPGKAPKLLIYDASSLESGVPLRFSGSGSGTEFTLTISSLQPDDFATYYCQQKYSAPQVTFGQGTRLEIKRTVAAPSVFIFPPSDEQLKSGTASVVCLLNNFYPREAKVQWKVDNALQSGNSQESVTEQDSKDSTYSLSSTLTLSKADYEKHKVYACEVTHQGLSSPVTKSFNRGEC
B4: ADT1-4-2/ADT3-2 (bispecific antibody)
heavy: B2 heavy with Q1E, S104V, V109R, T361L, D362E, D363E
light: B3 light
B5: ADT1-4-138/ADT3-2 (bispecific antibody)
heavy: B2 heavy with Q1E, S104A, G105D, T361L, D362E, D363E
VL: DIQMTQSPPALSASVGDRVTITCRASQDINDWLAWYQHKPGKAPKLLIYDASSLESGVPSRFSGSGSGTEFTLTISSLQPDDFATYYCQQRYSTDQVTFGQGTRLEIK
B6: ADT1-4-6/ADT3-2 (bispecific antibody)
heavy: B2 heavy with Q1E, S104A, V107P, T361L, D362E, D363E
VL: B5 VL with S60L, R91K, S93K, D95P
B7: ADT1-4 (parental) (antibody, IgG1, V domains shown)
VH: QVQLQQSGPGLVKPSQTLSLTCAISGDSVSSKSAAWNWIRQSPSRGLEWLGRTYYRSKWSTDYAASVKSRITINPDTSKNQLSLQLNSVTPEDTAVYYCARTWSGYVDVWGQGTLVTVSS
VL: ASDIQMTQSPPALSASVGDRVTITCRASQDINDWLAWYQHKPGKAPKLLIYDASSLESGVPSRFSGSGSGTEFTLTISSLQPDDFATYYCQQSYSTPQVTFGQGTRLEIK
B8: ADT1-4-6 (antibody, IgG1, V domains shown)
VH: B7 VH with Q1E, S104A, V107P
VL: B5 VL with S60L, R91K, S93K, D95P
B9: ADT1-4-21 (antibody, IgG1, V domains shown)
VH: B7 VH with Q1E, A34V, S104A, G105D
VL: B5 VL with S60L, R91K, D95P, Q96W
B10: ADT1-4-138 (antibody, IgG1, V domains shown)
VH: B7 VH with Q1E, S104A, G105D
VL: B5 VL
B11: ADT1-4-112 (antibody, IgG1, V domains shown)
VH: B7 VH with Q1E, S104V, V109Y
VL: B5 VL with S60L, R91K, T94Q, D95P
B12: ADT1-4-86 (antibody, IgG1, V domains shown)
VH: B7 VH with Q1E, A34V, S104L, Y106N
VL: B5 VL with S60L, R91K, T94E, D95P
B13: ADT1-4-2 (antibody, IgG1, V domains shown)
VH: B7 VH with Q1E, S104V, V109R
VL: B5 VL with S60L, R91K, T94A, D95P
B14: ADT1-4-143 (antibody, IgG1, V domains shown)
VH: B7 VH with Q1E, Q5L, S104V, V107A
VL: B5 VL with S60L, D95H, E106V
B15: ADT1-4-19 (antibody, IgG1, V domains shown)
VH: B7 VH with Q1E, S104V, V109R
VL: B5 VL with S60L, R91K, D95P, Q96K
B16: ADT1-4-31 (antibody, IgG1, V domains shown)
VH: B7 VH with Q1E, S104V, V107A
VL: B5 VL with S60L, D95P, Q96P
B17: ADT1-4-1 (antibody, IgG1, V domains shown)
VH: B7 VH with Q1E, S104V, V107A
VL: B5 VL with S60L, D95P, Q96I
B18: ADT1-4-53 (antibody, IgG1, V domains shown)
VH: B7 VH with Q1E, A34V, S104A, G105D
VL: B5 VL with S60L, R91K, D95P, V97L
B19: ADT1-7-20 (antibody, IgG1, V domains shown)
VH: B1 VH with Q1E, A102Q, D103E
VL: DIQMTQSPSSLSASVGDRVTIACRAGQSIGTYLNWYQQKPGKAPKLLIYVASSLQSGVPSRFSGSGSGTEFTLTISSLQPEDFATYYCQQSYSGLDTFGRGTKVEIK
B20: ADT1-7-3 (antibody, IgG1, V domains shown)
VH: B1 VH with Q1E, D100S, D103E
VL: B19 VL
B21: ADT1-7-61 (antibody, IgG1, V domains shown)
VH: B1 VH with Q1E, V99D, A102D
VL: B19 VL with Y92A, G94E, D96L

The binders below were run against Vδ1 TCR on human Vδ1-positive γδ T cells (human), A0A1B0 (assay: not given). Settings: scale: nM.
Sequence of Vδ1 TCR on human Vδ1-positive γδ T cells (human), A0A1B0 (A0A1B0 entry or part of it mutant limits assumed): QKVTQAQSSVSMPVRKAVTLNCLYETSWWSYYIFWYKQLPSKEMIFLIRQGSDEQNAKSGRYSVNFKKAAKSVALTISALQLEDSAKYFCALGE

| IC50 of Vδ1 TCR downregulation (% MFI of anti-Vδ1 staining after 2 h, two γδ cell donors) | Binder |
| --- | --- |
| 22.4 | B1 |

Each binder was assayed against Vδ1 TCR on human Vδ1-positive γδ T cells (human), A0A1B0 (assay: not given). Settings: not given.

| Vδ1 TCR down-regulation (A375 co-culture): % change (at saturation) [%] | Vδ1 TCR down-regulation (A375 co-culture): EC95 [nM] | Vδ1 TCR down-regulation (A431 co-culture): % change (at saturation) [%] | Vδ1 TCR down-regulation (A431 co-culture): EC95 [nM] | Binder |
| --- | --- | --- | --- | --- |
| 34 | 5.9 | 80.3 | 0.0263 | B2 |
| 46 | 0.101 | 81.1 | 0.0079 | B3 |

Target: Vδ1 TCR on human Vδ1-positive γδ T cells (human), A0A1B0
Experiment: not given
Settings: not given
Remark: another data set of the same source

| Vδ1 TCR down-regulation (A375 co-culture): % change (at saturation) [%] | Vδ1 TCR down-regulation (A375 co-culture): EC50 [nM] | Vδ1 TCR down-regulation (A375 co-culture): EC95 [nM] | Binder |
| --- | --- | --- | --- |
| 102 | 0.00142 | 0.0379 | B4 |
| 75.3 | 0.00798 | 0.496 | B5 |
| 81.9 | 0.00606 | 0.0836 | B6 |

Target: Vδ1 TCR on human Vδ1-positive γδ T cells (human), A0A1B0
Experiment: not given
Settings: not given
Remark: another data set of the same source

| Vδ1 TCR down-regulation (A375 co-culture): EC50 (read off the curve) [nM] | Binder |
| --- | --- |
| 0.01 | B3 |

Target: Vδ1 TCR on human Vδ1-positive γδ T cells (human), A0A1B0
Experiment: not given
Settings: not given
Remark: another data set of the same source

| Vδ1 TCR down-regulation (A375 co-culture): % change (at EC100 saturation) [%] | Vδ1 TCR down-regulation (A375 co-culture): EC50 [nM] | Binder |
| --- | --- | --- |
| 96.8 | 0.00095 | B4 |

These binders were tested against Vδ1 TCR on human Vδ1-positive γδ T cells (human), A0A1B0 (assay: cell-based or functional assay). Settings: not given.

| IC50 TCR downregulation (soluble assay, added in solution) [nM] | IC50 TCR DR (no THP-1) | IC90 TCR DR (noTHP-1) | Binder |
| --- | --- | --- | --- |
| 38.3 |  |  | B7 |
|  | 0.48 nM | 1.9 nM and 1.91 nM | B8 |
|  | 0.27 nM and 0.266 nM | 0.89 nM and 0.892 nM | B9 |
|  | 8.4 nM and 8.38 nM | 38 nM and 38.3 nM | B10 |
|  | 0.3 nM and 0.295 nM | 1.1 nM and 1.09 nM | B11 |
|  | 0.31 nM and 0.307 nM | 1 nM | B12 |
|  | 0.31 nM | 0.83 nM and 0.834 nM | B13 |
|  | 0.31 nM and 0.313 nM | 0.85 nM and 0.853 nM | B14 |
|  | 0.37 nM and 0.367 nM | 1.6 nM and 1.58 nM | B15 |
|  | 0.24 nM and 0.245 nM | 1.1 nM and 1.09 nM | B16 |
|  | 0.36 nM | 0.67 nM | B17 |
|  | 0.25 nM and 0.254 nM | 0.7 nM and 0.698 nM | B18 |
|  | 0.16 nM and 0.164 nM | 1 nM and 1.04 nM | B19 |
|  | 0.16 nM and 0.161 nM | 0.79 nM | B20 |
|  | 6.3 nM and 6.26 nM | 1700 nM | B21 |
